Results on two molecules are retold here after paper PMC10576089, “Integrative solution structure of PTBP1-IRES complex reveals strong compaction and ordering with residual conformational flexibility”.

Series [1] deals with PTBP1 RRM1 (UniProt P26599-1 41-163). Description: NMR (intermolecular NOEs); binding register confirmed; NMR/SANS: 10 mM NaPO4 pH 6.5, 20 mM NaCl, 1-2 mM DTT; protein NMR at 313/323 K, imino spectra 278-293 K; DEER 1:1 d8-glycerol at 50 K; SAS 23 C. The settings on record: protein: recombinant; hairpin.
PTBP1 RRM1, sequence (P26599 41-163): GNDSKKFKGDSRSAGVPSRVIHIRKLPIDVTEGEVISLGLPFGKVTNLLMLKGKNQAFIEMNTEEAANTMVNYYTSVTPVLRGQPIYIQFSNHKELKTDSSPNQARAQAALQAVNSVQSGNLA
Series [2] addresses PTBP1 (hnRNP I) (UniProt P26599-1 1-531, C250S;C251S). The experiment in a line: NMR; SAXS/SANS; CLIR-MS/MS; integrative structure; ensemble in Zenodo 10.5281/zenodo.7798970; NMR/SANS: 10 mM NaPO4 pH 6.5, 20 mM NaCl, 1-2 mM DTT; protein NMR at 313/323 K, imino spectra 278-293 K; DEER 1:1 d8-glycerol at 50 K; SAS 23 C. The settings on record: protein: recombinant; stem-loops D, E and F with single-stranded linkers.

PTBP1 (hnRNP I), sequence (P26599 other isoform, or with tags, fused parts or gaps C250S;C251S): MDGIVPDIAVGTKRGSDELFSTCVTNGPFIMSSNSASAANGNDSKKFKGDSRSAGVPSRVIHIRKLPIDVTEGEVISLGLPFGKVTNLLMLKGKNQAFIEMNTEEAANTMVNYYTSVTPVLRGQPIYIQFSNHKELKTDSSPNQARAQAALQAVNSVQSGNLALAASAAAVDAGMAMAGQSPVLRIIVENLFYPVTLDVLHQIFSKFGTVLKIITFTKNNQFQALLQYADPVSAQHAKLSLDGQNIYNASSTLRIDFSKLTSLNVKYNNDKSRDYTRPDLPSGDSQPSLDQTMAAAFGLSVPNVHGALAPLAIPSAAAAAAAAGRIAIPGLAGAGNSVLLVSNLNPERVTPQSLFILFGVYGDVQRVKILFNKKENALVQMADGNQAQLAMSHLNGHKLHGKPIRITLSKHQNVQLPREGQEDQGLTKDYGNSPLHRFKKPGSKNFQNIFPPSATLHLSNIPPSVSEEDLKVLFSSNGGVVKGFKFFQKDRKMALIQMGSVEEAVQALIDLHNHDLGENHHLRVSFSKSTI

B1: SLE (structured_RNA)
RNA: GGAGCGUUUGUCUAUAUGUUCC
B1: the binding result in series [1] is “binds”.

B2: EMCV-IRES-DtoF (structured_RNA)
RNA: UACUGGCCGAAGCCGCUUGGAAUAAGGCCGGUGUGCGUUUGUCUAUAUGUUAUUUUCCACCAUAUUGCCGUCUUUUGGCAAUGUG
Consider B2, for which the binding result in series [2] is given as “binds”.
